Test results taken from patent US12312397B2, “Anti-O2 antibodies and uses thereof” (priority 2016, dated 2025).

B1: KPD1: Class I anti-O2 antigen human mAb; VH SEQ ID NO: 134, VL SEQ ID NO: 135 (antibody, V domains shown)
VH: QVQLQESDPRLVKPSETLSLTCSVSGVSITSNTYWWAWIRQPPGKKLEWIGSLSYSGDTYYNPSLTSRVTISRDIHQNQFFLELNSVTAADTAMYYCARDPDIIRNFQFDYWGRGTLVTVSS
VL: EIVLTQSPGILSLSPGERATLSCRVSQILYMSHLAWYQHKPGQAPRLLIYGASIRATGVPDRFSGSGSGTDFTLTISRLEPEDFAVYYCQQYGASPTFGQGTMVEIK
modifications: Description of Artificial Sequence: SyntheticKPD1 VH polypeptide; Description of Artificial Sequence: SyntheticKPD1 VL polypeptide
B2: KPN70: Class I anti-O2 antigen human mAb; VH SEQ ID NO: 44, VL SEQ ID NO: 45 (antibody, V domains shown)
VH: QVQLQESGPGLVKPSETLSLTCTVSGGSISTYYWNWIRQSPGKELEWIANIHQSGTTYYNPSLKSRVTMSVDTSKNQFSLKVISVTAADTAVYYCARESDDGYKWNYFDYWGQGTLVTVSS
VL: EIVLTQSPASLSLSPGERATLSCRASQIVTNYLAWYQHKPGQAPRLLIFDMSIRAAGIPARFSGSGSGTDFTLTISSLEPEDFAVYYCQHRSNWPLFTFGPGTKVDIK
modifications: Description of Artificial Sequence: SyntheticKPN70 VH polypeptide; Description of Artificial Sequence: SyntheticKPN70 VL polypeptide

Experiments:
KPC strain Kp961842_O2 = test: Lethal pneumonia model, KPC strain Kp961842_O2; assay type: in vivo, Klebsiella pneumoniae; conditions: C57/BL6 mice, 2e8 CFU; mAb 2 mg/kg 1 hour post infection; survival
Experimental: (§1) C57/BL6 mice were obtained from Jackson Laboratories and maintained in a special pathogen-free facility. All animal experiments were conducted in accordance with Institutional Animal Care and Use Committee (IACUC) protocol and guidance. K. pneumoniae strains were grown on agar plates overnight and diluted in saline at proper concentration. The inoculum titer was determined by plating a serial dilution of bacteria onto agar plates prior to and post challenge. In acute pneumonia models, C57/BL6 mice were inoculated with 1e4 to 2e8 colony-forming units (CFU) of K. pneumoniae clinical isolates in 50 μl saline intranasally. Anti-K pneumoniae monoclonal antibodies (mAbs) and human IgG1 control antibodies were given 1-24 hour post bacterial challenge (therapeutic dosing). Mouse survival was monitored daily until up to day 8. Survival data of representative experiments were plotted in Graphpad Prism software.
(§2) Mice were challenged with 2e8 CFU of Klebsiella pneumoniae Carbanpenemase (KPC) strain Kp961842_O2 or with 3e8 CFU of KPC strain Kp977778_O2, followed by the administration of anti-O2 mAbs. When administered at a concentration of 2 mg/kg 1 hour post bacterial infection, Class III anti-O2 LPS mAbs KPN42, KPN179-IgG1, and KPS44v2017 protected mice from lethal bacterial challenge with the multi-drug resistant KPC strains Kp961842_O2 (FIG. 6, left panel, and FIG. 10) and Kp977778_O2 (FIG. 6B, right panel).

[1] = test system: O2 LPS activation of NF-κB in RAW264.7-lux cells; test: LPS neutralization assay (NF-κB luciferase, RAW264.7-lux), O2 LPS; assay type: cell-based, murine; conditions: for neutralizing activity against O2 LPS (NF-κB activation): human IgG1 format; for neutralization of LPS-O2: secondary screening
Outline: (§3)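 Serially diluted mAbs (human IgG1) pre-mixed 1:1 with LPS at 4 °C for 1 hr, then diluted 1:10 onto RAW264.7-lux cells carrying an NF-κB-driven firefly luciferase; 2.5 h at 37 °C. Luminescence read; % inhibition relative to no-antibody and negative-control mAb wells.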

O2 LPS = test: ELISA binding to O2 LPS; design: species or system Klebsiella pneumoniae; conditions: secondary screening, ELISA
Outline: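 Serial dilutions of monoclonal antibodies bound to LPS-coated plates for 1 h at room temperature, detected with alkaline phosphatase-conjugated anti-human IgG (1 h) and pNPP substrate (30 min). Absorbance read at 405 nm; EC50 values derived from binding curves.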

KPC strain Kp977778_O2 = test: Lethal pneumonia model, KPC strain Kp977778_O2; assay type: in vivo, Klebsiella pneumoniae; conditions: C57/BL6 mice, 3e8 CFU; mAb 2 mg/kg 1 hour post infection; survival
Experimental: as §1, §2

O1 LPS [2] = test: ELISA binding to O1 LPS; design: species or system Klebsiella pneumoniae; conditions: secondary screening
Experimental: The coated plates were incubated with cell culture supernatants from polyclonally stimulated lymphocytes (AMVBRA) or from monoclonal immortalized B cells (donor interrogations) containing fully human antibodies or with diluted plasma samples (PBMC donor selections) for 1 hour at room temperature. The plates were then washed with PBS containing 0.1% Tween-20 (PBS-T). Secondary antibody was added; either Alkaline Phosphatase-conjugated Goat Anti-Human IgG-AP (Southern Biotech, 2040-04, 1:1000 in PBS-B) or Peroxidase AffiniPure F(ab′)2 Fragment Goat Anti-Human IgG, Fc Fragment Specific (Jackson ImmunoResearch #309 036 098, 1:5000 in PBS-B) were used. Secondary antibodies were typically incubated for 1 h. Plates were washed three times with PBS-T, and P-NitroPhenyl Phosphate (pNPP, Sigma-Aldrich, cat #N2765-100TAB) or Sureblue (KPL, 53-00-03) substrates were added and incubated for 10 min or until the development of a colorimetric reaction. In the case of the HRP substrate Sureblue, the reaction was stopped by adding an equal volume of 0.2N HCl. The absorbance at 405 nm (pNPP) or 450 nm (Sureblue) was measured by a microplate reader (Biotek, Elx808).
The coated plates were incubated with serial dilutions of the monoclonal antibodies for 1 hour at room temperature. The plates were then washed with PBS containing 0.1% Tween-20 (PBS-T). Alkaline Phosphatase-conjugated Goat Anti-Human IgG (Southern Biotech, 2040-04, 1:1000 in PBS-B) was added. The secondary antibody reactions were incubated for 1 h. Plates were washed three times with PBS-T, and P-NitroPhenyl Phosphate (pNPP, Sigma-Aldrich, cat #N2765-100TAB) substrate was added and incubated for 30 min or until the development of a colorimetric reaction. The absorbance at 405 nm was measured by a microplate reader (Biotek, Elx808). The data was plotted with Graphpad Prism software. Representative mAbs from each class were tested for their binding to O1 LPS (FIG. 2A) and O2 LPS (FIG. 2B), and EC50 values were obtained (FIG. 2C). The majority of the anti-O2 LPS mAbs bound to both O1 and O2 LPS by ELISA. […] None of these LPS mAbs bound to the 03, 04, 05, 07, or 012 LPS serotypes (see e.g., FIG. 1A).

[3] = test system: K. pneumoniae 8570ΔcpsBLux (O2); test: Opsonophagocytic killing (OPK) assay, O2 capsule mutant; assay type: cell-based, Klebsiella pneumoniae; design: key to D Capsule OPK O2: +++: Strongly positive activity; +: Positive activity; +/−: Somewhat positive depending upon the test conditions
Outline: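 Luminescent capsule-deficient K. pneumoniae strains were mixed with DMF-differentiated HL-60 cells, 1:10 baby rabbit serum and anti-O2 LPS mAbs (2 ng–2.5 μg/mL), then shaken for 2 h at 37 °C. Killing % came from luminescence (RLU) against no-antibody and negative-control mAb wells, with >40% scored as positive.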

[4] = test system: O1 LPS activation of NF-κB in RAW264.7-lux cells; test: LPS neutralization assay (NF-κB luciferase, RAW264.7-lux), O1 LPS; assay type: cell-based, murine; conditions: for neutralizing activity against O1 LPS (NF-κB activation): human IgG1 format; for neutralization of LPS-O1: secondary screening
Outline: as §3

O1 LPS [5] = test: Western blot of purified Klebsiella LPS serotypes, O1 LPS; assay type: binding, Klebsiella pneumoniae; conditions: FIG. 1A
Text: FIGS. 1A-B show the expansion of the O2 LPS serotype in multi-drug resistant (MDR) strains of Klebsiella pneumoniae.
SDS-PAGE analysis followed by Silver Stain confirmed the purity of LPS. Human antibodies against O2 serotypes were then identified based on the reactivity of human B cells against the respective purified LPS. […] (FIG. 1A).

K. pneumoniae O1/O2 = test: Mouse protection models (O1/O2), Table 7 summary; assay type: in vivo, Klebsiella pneumoniae; design: key: +++: Strongly positive activity; +: Positive activity; +/−: Somewhat positive depending upon the test conditions; conditions: mouse pneumonia models
Experimental: As described in more detail in below, anti-O2 LPS mAbs were tested for: 1) binding to O1 and O2 LPS (see Example 5); 2) LPS neutralization (LPS-Neut) against O1 and O2 LPS (see Example 7); 3) OPK against capsule mutant strain 43816ΔcpsB lux (O1) and 8570ΔcpsB lux (O2) (see Example 8); and 4) protective activity in pneumonia models (see Example 9). O2 LPS mAbs were subsequently divided into three classes based on their in vitro activities. Class I mAbs were characterized as Binding (O1+O2+)/OPK (O1−O2+); Class 2 mAbs were characterized as Binding (O1+O2+)/OPK (O1+O2+); and Class III mAbs were characterized as Binding (O1±O2+)/OPK (O1−O2+).
as §1, with “Anti-K pneumoniae monoclonal antibodies (mAbs) and human IgG1 control antibodies were given 1-24 hour post bacterial challenge (therapeutic dosing).” left out, “Survival data of representative experiments were plotted in Graphpad Prism software.” left out

Molecule	protection from lethal bacterial challenge, Kp961842_O2 (KPC strain Kp961842_O2)	neutralizing activity against O2 LPS (NF-κB activation) [1]	neutralization of LPS-O2 [1]	binding to LPS-O2 (O2 LPS)	protection from lethal bacterial challenge, Kp977778_O2 (KPC strain Kp977778_O2)	binding to LPS-O1 (O1 LPS [2])	OPK activity against O2 capsule mutant ([3]; secondary screening)	neutralizing activity against O1 LPS (NF-κB activation) [4]	neutralization of LPS-O1 [4]	cross-reactivity with O1 LPS (O1 LPS [5])	Mouse protection models (O1/O2) (K. pneumoniae O1/O2)	D Capsule OPK O2 ([3]; capsule mutant strain 8570ΔcpsB lux (O2))
B1	did not protect	blocked	neutralized	showed binding	did not protect	showed binding	showed OPK activity	blocked	neutralized	showed cross-reactivity with O1 LPS	–	–
B2	did not protect	blocked	neutralize	–	did not protect	–	–	blocked	neutralize	–	+/−	+++
